In paper PMC6499816 (2019) one finds Kd data, which are given here for 13 molecules.

The labels stand for the following.
B2: LC3C (recombinant, BLI) (natural protein)
chain: MPPPQKIPSVRPFKQRKSLAIRQEEVAGIRAKFPNKIPVVVERYPRETFLPPLDKTKFLVPQELTMTQFLSIIRSRMVLRATEAFYLLVNNKSLVSMSATMAEIYRDYKDEDGFVYMTYASQETFG

Where two headings read alike, the source gives them in different places. Ends that are not written are not given here.

Holding throughout (experiment): BLI
(Biolayer interferometry detects binding as a change in optical thickness at a sensor tip.)

Assay [1] addresses GABARAP R28K (recombinant, BLI) (human, UniProt O95166 1-117, R28K).
Assay [2] addresses GABARAP K24Q/Y25H/R28K (recombinant, BLI) (human, UniProt O95166 1-117, K24Q | Y25H | R28K).
Assay [3] concerns the target GABARAP L55V (recombinant, BLI) (human, UniProt O95166 1-117, L55V).
In assay [4] the target is GABARAP L63I (recombinant, BLI) (human, UniProt O95166 1-117, L63I).
The target of assay [5] is LC3B Q26K/H27Y/E62Q (recombinant, BLI) (human, UniProt Q9GZQ8 1-120, Q26K | H27Y | E62Q).
Assay [6] deals with GABARAP K24Q/Y25H/Q59E/F60L (recombinant, BLI) (human, UniProt O95166 1-117, K24Q | Y25H | Q59E | F60L).
For assay [7], the target named is LC3B E62Q (recombinant, BLI) (human, UniProt Q9GZQ8 1-120, E62Q).
Assay [8] has as its target T1, GABARAP-L2 (recombinant, BLI) (human, UniProt P60520 1-117).
Assay [9] addresses T2, LC3B (recombinant, BLI) (human, UniProt Q9GZQ8 1-120).
Assay [10] deals with B2.
In assay [11] the target is T1, GABARAP-L2 (recombinant, BLI). The source holds these as a separate data set.
The target of assay [12] is GABARAP (recombinant, BLI) (human, UniProt O95166 1-117).
Assay [13] addresses B2.
Assay [14] concerns the target T3, LC3A (recombinant, BLI) (human, UniProt Q9H492 1-121).
The target of the next assay is -L1 (recombinant, BLI) (human, UniProt Q9H0R8 1-117).
-L1 (recombinant, BLI), sequence (Q9H0R8 whole entry): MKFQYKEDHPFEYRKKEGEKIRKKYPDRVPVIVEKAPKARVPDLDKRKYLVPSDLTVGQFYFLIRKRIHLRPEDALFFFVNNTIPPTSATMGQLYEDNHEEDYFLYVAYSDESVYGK
The target in assay [15] is T2, LC3B (recombinant, BLI). The source holds these as a separate data set.
In assay [16] the target is PCM1 LIR peptide mutated at P1962 (X7) (BLI) (UniProt Q15154, biotin (position not given)).
In assay [17] the target is GABARAP F62K (recombinant, BLI) (human, UniProt O95166 1-117, F62K).
The target of assay [18] is LC3B Q26K/H27Y/K30R (recombinant, BLI) (human, UniProt Q9GZQ8 1-120, Q26K | H27Y | K30R).
Assay [19] concerns the target GABARAP K24Q (recombinant, BLI) (human, UniProt O95166 1-117, K24Q).
Assay [20] has as its target GABARAP Y25H (recombinant, BLI) (human, UniProt O95166 1-117, Y25H).
In assay [21] the target is GABARAP Q59E (recombinant, BLI) (human, UniProt O95166 1-117, Q59E).
For assay [22], the target named is T3, LC3A (recombinant, BLI). This is another data set of the same source.

T1 sequence (P60520 whole entry): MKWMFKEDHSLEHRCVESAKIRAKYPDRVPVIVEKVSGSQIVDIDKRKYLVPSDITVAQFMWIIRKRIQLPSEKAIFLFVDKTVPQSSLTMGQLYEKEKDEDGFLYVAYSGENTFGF

Turning to PDSIDAHTFDFETIPHPNIEQTIH (also: biotin, position not given here) [FIP200 LIR peptide (biotinylated, BLI)], the dissociation constant Kd in assay [1] is 12.5 µM; in [2] it was 70.3 µM; in [3], 8.5 µM; in [4], 3.8 µM.
Turning to GGSSGNTHDDFVMIDFKPAFSKDD (also: biotin, position not given here) [ATG13 LIR peptide (biotinylated, BLI)], the Kd in assay [5] came to 3.1 µM; in assay [6] it was 3.3 µM; in [7] it was 4.5 µM; in assay [8] it was 3.1 µM; with LC3B (recombinant, BLI) [9], 9.6 µM; with LC3C (recombinant, BLI) [10] it was 0.48 µM.
Consider SDNCSGGDDDWTHLSSKEVDPSTG (also: biotin, position not given here) [p62 LIR peptide (biotinylated, BLI)], for which the Kd with LC3C (recombinant, BLI) [10] is 2.7 µM.
As to NISQKSDEEDFVKIEDLPLKLTIY (also: biotin, position not given here) [PCM1 V1958I LIR peptide], the Kd in assay [11] amounted to 7.6 µM; in [12], 1.5 µM; with LC3C (recombinant, BLI) [13], 6.9 µM.
As for NISQKSDEEDFDIIEDLPLKLTIY (also: biotin, position not given here) [PCM1 FDII LIR peptide (BLI)], the equilibrium dissociation constant (Kd) in [11] stood at 17 µM; with LC3A (recombinant, BLI) [14], 4.6 µM; with -L1 (recombinant, BLI) it was 0.91 µM; with LC3B (recombinant, BLI) [15], 21.8 µM; in [12], 1.4 µM; in the assay with LC3C (recombinant, BLI) [13], 2.4 µM.
As for NISQKSDEEDFVIVEDLPLKLTIY (also: biotin, position not given here) [PCM1 K1957I LIR peptide (BLI)], the equilibrium dissociation constant (Kd) in assay [11] stood at 1.19 µM; with LC3A (recombinant, BLI) [14], 3.9 µM; with -L1 (recombinant, BLI) it was 0.13 µM; in assay [12], 0.17 µM; with LC3C (recombinant, BLI) [13] it was 0.38 µM.
Consider NISQKSDEEDFVKVTDLPLKLTIY (also: biotin, position not given here) [PCM1 E1959T LIR peptide (BLI)], for which the dissociation constant (Kd) in assay [11] is 19 µM; with -L1 (recombinant, BLI), 2.9 µM; in assay [12] it was 3.1 µM.
For TDYRPPDDAVFDIITDEELCQIQE, the Kd in the assay with -L1 (recombinant, BLI) amounted to 0.9 µM.
For NISQKSDEEDFDKVEDLPLKLTIY (also: biotin, position not given here) [PCM1 V1956D LIR peptide], the Kd in [12] was 7.7 µM.

B1: FYCO1 WT LIR peptide (peptide)
chain: TDYRPPDDAVFDIITDEELCQIQE
modifications: 24-mer limits inferred: 10 residues on each side of the core FDII (1280-1283), as in the arrays; exact peptide is in Supplementary Table 2. N- or C-terminal biotin if used in BLI, cellulose-bound if in the array
B1: the Kd came out at 17.4 µM in assay [11]; 0.78 µM in the assay with LC3A (recombinant, BLI) [14]; 1.1 µM in the assay with LC3B (recombinant, BLI) [15]; 1.7 µM in assay [12]; 3 µM with LC3C (recombinant, BLI) [13].
On to B2, for which the Kd in assay [16] was determined as 10.8 µM.
NISQKSDEEDFVKVEDLPLKLTIY (also: biotin, position not given here) [PCM1 LIR peptide (biotinylated, BLI)]: the dissociation constant (Kd) in assay [1] came to 4.2 µM; in assay [17], 3.8 µM; in assay [7], 160 µM; in assay [4] it was 2 µM.
SKDSSCDTDDFVMVPAQFPGDLVA (also: biotin, position not given here) [ULK1 LIR peptide (biotinylated, BLI)]: the Kd in [5] is 5.6 µM; in [18], 2.9 µM; in assay [1], 0.39 µM; in assay [19] it was 0.42 µM; in assay [17], 0.15 µM; in assay [2], 3.2 µM. In addition, the dissociation constant (Kd) came to 5.6 µM in [6]; 0.26 µM in [20]; 0.13 µM in assay [3]; 0.36 µM in [21]; 0.53 µM in [8]; 5.9 µM in the assay with LC3A (recombinant, BLI) [22]. Moreover, the dissociation constant (Kd) in the assay with LC3C (recombinant, BLI) [10] turned out to be 2.5 µM.

By Kd is commonly meant the constant that tells how readily two partners part at equilibrium.
